Source: paper PMC3417418 (2012)
Changes are numbered by the printed parent chain.

Legend:
CXCR3 [1] = biological target: T1, CXCR3 (Homo sapiens, UniProt P49682); assay: competition with 125I-CXCL11 on L1.2 cells
T1 chain: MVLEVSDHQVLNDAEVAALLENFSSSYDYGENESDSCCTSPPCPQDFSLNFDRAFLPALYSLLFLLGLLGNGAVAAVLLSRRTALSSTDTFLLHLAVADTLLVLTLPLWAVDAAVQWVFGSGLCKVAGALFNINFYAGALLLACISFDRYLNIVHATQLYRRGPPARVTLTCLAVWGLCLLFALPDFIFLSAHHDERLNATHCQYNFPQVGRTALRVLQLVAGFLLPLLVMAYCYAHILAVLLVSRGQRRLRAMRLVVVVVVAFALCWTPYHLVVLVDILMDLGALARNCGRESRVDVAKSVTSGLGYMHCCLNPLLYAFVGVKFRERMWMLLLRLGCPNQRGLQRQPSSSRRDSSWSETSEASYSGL

CXCR3 [2] = biological target: T1, CXCR3; assay: competition with 125I-CXCL10 on L1.2 cells
CXCR3 [3] = biological target: T2, CXCR3 (Homo sapiens, UniProt P49682); assay: homologous competition 125I radioligand binding on L1.2 cells
T2 chain: T1 chain with D112N

CXCR3 [4] = biological target: T3, CXCR3 (Homo sapiens, UniProt P49682); assay: as above
T3 chain: T1 chain with D297N

CXCR3 [5] = biological target: T4, CXCR3 (Homo sapiens, UniProt P49682); assay: as above
T4 chain: T1 chain with D278N

CXCR3 [6] = biological target: T5, CXCR3 (Homo sapiens, UniProt P49682); assay: as above
T5 chain: T1 chain with D282N

CXCR3 [7] = biological target: T6, CXCR3 (Homo sapiens, UniProt P49682); assay: as above
T6 chain: T1 chain with D195N

CXCR3 [8] = biological target: T7, CXCR3 (Homo sapiens, UniProt P49682); assay: as above
T7 chain: T1 chain with E196Q

B1: CXCL11 (protein)
chain: FPMFKRGRCLCIGPGVKAVKVADIEKASIMYPSNNCDKIEVIITLKENKGQRCLNPKSKQARLIIKKVERKNF
IC50 (CXCR3 [1]): 1.2 nM
IC50 (CXCR3 [2]): 0.4 nM
Kd (CXCR3 [3]): 3.8 nM
Kd (CXCR3 [4]): 26.3 nM
Kd (CXCR3 [5]): 2.6 nM
Kd (CXCR3 [6]): 1.4 nM
Kd (CXCR3 [7]): 16 nM
Kd (CXCR3 [8]): 0.4 nM
